Data reported in patent publication US20180208648A1 (SCHOLAR ROCK, published 2018).
Changes are numbered by the printed parent chain.

Experiments:
[1] = target: T1, human latent GDF11 (human, UniProt O95390 25-407, biotinylated, site not stated); experiment: BLI (ForteBio Octet)
T1 construct: also called hu latent GDF11
T1 sequence: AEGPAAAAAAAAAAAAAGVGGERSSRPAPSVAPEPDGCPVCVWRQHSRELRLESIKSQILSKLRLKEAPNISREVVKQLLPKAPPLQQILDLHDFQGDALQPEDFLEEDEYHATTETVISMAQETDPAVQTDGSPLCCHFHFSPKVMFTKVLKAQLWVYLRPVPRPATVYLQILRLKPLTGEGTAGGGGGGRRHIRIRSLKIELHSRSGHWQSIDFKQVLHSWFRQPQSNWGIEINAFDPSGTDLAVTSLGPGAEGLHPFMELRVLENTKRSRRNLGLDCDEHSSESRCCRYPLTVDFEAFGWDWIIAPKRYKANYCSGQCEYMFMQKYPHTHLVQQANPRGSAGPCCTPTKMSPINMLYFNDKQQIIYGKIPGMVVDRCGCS

[2] = target: T2, human proGDF11 (human, UniProt O95390 25-407, biotinylated (NHS-PEG4-Biotin), site not stated); experiment: BLI (ForteBio Octet)
T2 construct: Dimeric complex; also called hu proGDF11; GDF11 prodomain complex
T2 sequence: T1 sequence

[3] = target: T2, human proGDF11; experiment: cell-based or functional assay
[4] = target: T3, murine proGDF11 (mouse, UniProt Q9Z1W4 25-405, biotinylated, site not stated); experiment: cell-based or functional assay
T3 sequence: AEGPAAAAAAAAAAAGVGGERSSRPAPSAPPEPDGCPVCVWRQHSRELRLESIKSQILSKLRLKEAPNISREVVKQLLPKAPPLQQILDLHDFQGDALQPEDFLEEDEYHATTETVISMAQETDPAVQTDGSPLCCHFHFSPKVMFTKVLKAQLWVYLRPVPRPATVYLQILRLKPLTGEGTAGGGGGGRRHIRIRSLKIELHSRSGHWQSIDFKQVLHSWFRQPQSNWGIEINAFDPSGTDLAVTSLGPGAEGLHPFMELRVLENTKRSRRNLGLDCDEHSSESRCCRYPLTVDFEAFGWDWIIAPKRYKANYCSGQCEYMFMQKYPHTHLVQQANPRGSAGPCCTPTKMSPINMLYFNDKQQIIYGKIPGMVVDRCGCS

[5] = target: T2, human proGDF11; experiment: cell-based or functional assay; remark: listed apart in the source
[6] = target: T4, human mature GDF11 (human, UniProt O95390 299-407, biotinylated, site not stated); experiment: ELISA, biotinylated antigen on neutravidin plate
T4 construct: Growth factor domain; also called GDF11 mature growth factor
T4 sequence: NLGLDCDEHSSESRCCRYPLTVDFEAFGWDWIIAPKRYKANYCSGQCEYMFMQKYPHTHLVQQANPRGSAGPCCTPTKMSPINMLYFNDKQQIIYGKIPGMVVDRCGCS
Description: (§1) Candidate clones were converted to human IgG1 format. Full-length IgG antibodies were further characterized by ELISA for binding to the human and murine pro- and latent-forms of myostatin and GDF11. Antibodies were also screened for binding to the Myostatin prodomain (SEQ ID NO: 85), proTGFDβ1 (human and murine), the mature growth factor of Myostatin (SEQ ID NO: 89), the GDF11 mature growth factor (SEQ ID NO: 90), and proActivin A (SEQ ID NO: 84). Chimeric constructs which swapped portions of the prodomains of Myostatin and GDF11 were designed and produced. For example proGDF11 arm8 (SEQ ID NO: 112) refers to GDF11 having the GDF8 arm domain, and prodomain GDF11 arm8 (SEQ ID NO: 114) refers to the GDF11 prodomain having the GDF8 arm domain. These chimeric proteins were assayed for interaction with screening antibodies by ELISA and allowed for the assessment of binding of antibodies to the ARM or straight jacket portions of the GDF11 prodomain complex. Antibodies were selected based on their cross-reactivity with pro- and latent human and murine GDF11, with no interactions with GDF8, Activin, or TGFβ proteins. Activin A is a homodimer of inhibin-beta A subunits. For example, Inhibin-beta A can heterodimerize with other proteins to produce different Activin proteins.
(§2) Enzyme-linked immunosorbent assay (ELISA) analysis is carried out to assess antibody binding. 96-well ELISA assay plates are coated with neutravidin, a deglycosylated version of streptavidin with a more neutral pH. Target proteins are expressed with or without histidine (His) tags and subjected to biotinylation. Biotinylated target proteins are incubated with neutravidin-coated ELISA assay plates for two hours at room temperature and unbound proteins are removed by washing three times with wash buffer (either 25 mM Tris, 150 mM NaCl, 0.05% TWEEN®-20, or 20 mM Hepes pH 7.5, 500 mM NaCl, 0.05% TWEEN®-20). Primary antibodies being tested are added to each well and allowed to incubate at room temperature for 1 hour or more. Unbound antibody is then removed by washing three times with wash buffer. Secondary antibodies capable of binding to primary antibodies being tested and conjugated with detectable labels are then incubated in each well for 30 minutes at room temperature. Unbound secondary antibodies are removed by washing three times with wash buffer.

[7] = target: T5, human prodomain GDF11 ARM8 (human, biotinylated, site not stated); experiment: ELISA, biotinylated antigen on neutravidin plate
T5 construct: GDF11 prodomain having the GDF8 arm domain; also called human GDF11 ARM8 prodomain
T5 chain: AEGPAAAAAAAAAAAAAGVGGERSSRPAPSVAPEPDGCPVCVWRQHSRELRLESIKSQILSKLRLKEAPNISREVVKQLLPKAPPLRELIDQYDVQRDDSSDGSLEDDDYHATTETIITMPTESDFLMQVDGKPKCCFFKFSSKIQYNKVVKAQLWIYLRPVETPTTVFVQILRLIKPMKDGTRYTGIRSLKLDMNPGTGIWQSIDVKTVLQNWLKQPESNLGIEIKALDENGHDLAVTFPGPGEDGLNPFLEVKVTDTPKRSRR
Description: as §1, §2

[8] = target: T6, human proGDF11 ARM8 (human, biotinylated, site not stated); experiment: ELISA, biotinylated antigen on neutravidin plate
T6 construct: GDF11 having the GDF8 arm domain
T6 chain: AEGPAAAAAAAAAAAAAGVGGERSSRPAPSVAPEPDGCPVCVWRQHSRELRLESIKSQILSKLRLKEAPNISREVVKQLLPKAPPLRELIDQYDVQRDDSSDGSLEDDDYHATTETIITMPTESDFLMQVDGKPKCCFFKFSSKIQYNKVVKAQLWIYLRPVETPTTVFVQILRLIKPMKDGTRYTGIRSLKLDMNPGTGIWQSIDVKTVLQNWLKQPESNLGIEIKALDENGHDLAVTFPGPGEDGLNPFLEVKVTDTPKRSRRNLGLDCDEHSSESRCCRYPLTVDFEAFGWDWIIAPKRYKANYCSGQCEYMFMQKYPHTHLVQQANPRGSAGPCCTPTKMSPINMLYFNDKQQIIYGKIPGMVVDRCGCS
Description: as §1, §2

B1: GDF11 Inh-2 (antibody, V domains shown)
VH: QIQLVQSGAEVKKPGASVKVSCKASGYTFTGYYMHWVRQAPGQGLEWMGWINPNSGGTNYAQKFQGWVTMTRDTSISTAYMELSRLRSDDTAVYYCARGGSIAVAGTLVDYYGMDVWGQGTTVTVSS
VL: DIQMTQSPSSLSASVGDRVTITCQASQDISNYLNWYQQKPGKAPKLLIYDASNLETGVPSRFSGSGSGTDFTLTISSLQPEDVATYYCQKYSTAPLTFGGGTKVEIKR
notes: also called Clone GDF11 Inh-2
Q: What does the source list for B1?
A: Kd [1]: 0.27 nM; Kd [2]: 0.91 nM; Human proGDF11 % Inhibition (proGDF11 activation assay, CAGA luciferase reporter in 293T cells) [3]: 100%; Murine proGDF11 % inhibition (proGDF11 activation assay, CAGA luciferase reporter in 293T cells) [4]: 95%; EC50, proGDF11 activation assay at 50 nM proGDF11 [5]: 27.5 nM; binding result [6]: no binding; binding result [7]: no binding; binding result [8]: no binding

B2: GDF11 Inh-4 (antibody, V domains shown)
VH: QVQLVQSGAEVKKPGASVKVSCKASGYTFTSYGISWVRQAPGQGLEWMGWISAYNGNTNYAQKLQGRVTMTTDTSTSTAYMELRSLRSDDTAVYYCARTPPLWFGEYGAFDIWGQGAMVTVSS
VL: B1 VL with E81D, V83F, K90Q, Y91S, S92Y, A94T, L96I, G100Q, K103R, V104L
notes: also called Clone GDF11 Inh-4
Q: Which results are given for B2?
A: Kd [1]: 0.31 nM; Kd [2]: 1.08 nM; Human proGDF11 % Inhibition (proGDF11 activation assay, CAGA luciferase reporter in 293T cells) [3]: 94%; Murine proGDF11 % inhibition (proGDF11 activation assay, CAGA luciferase reporter in 293T cells) [4]: 87%; EC50, proGDF11 activation assay at 50 nM proGDF11 [5]: 26.7 nM; binding result [6]: no binding; binding result [7]: no binding; binding result [8]: no binding
